This note sets out measurements from publication PMC7913776 (Nucleic Acids Research, 2021).

The test addresses T1, GST-tagged full-length BACH1 protein (mouse, UniProt P97302 1-739).
T1 sequence: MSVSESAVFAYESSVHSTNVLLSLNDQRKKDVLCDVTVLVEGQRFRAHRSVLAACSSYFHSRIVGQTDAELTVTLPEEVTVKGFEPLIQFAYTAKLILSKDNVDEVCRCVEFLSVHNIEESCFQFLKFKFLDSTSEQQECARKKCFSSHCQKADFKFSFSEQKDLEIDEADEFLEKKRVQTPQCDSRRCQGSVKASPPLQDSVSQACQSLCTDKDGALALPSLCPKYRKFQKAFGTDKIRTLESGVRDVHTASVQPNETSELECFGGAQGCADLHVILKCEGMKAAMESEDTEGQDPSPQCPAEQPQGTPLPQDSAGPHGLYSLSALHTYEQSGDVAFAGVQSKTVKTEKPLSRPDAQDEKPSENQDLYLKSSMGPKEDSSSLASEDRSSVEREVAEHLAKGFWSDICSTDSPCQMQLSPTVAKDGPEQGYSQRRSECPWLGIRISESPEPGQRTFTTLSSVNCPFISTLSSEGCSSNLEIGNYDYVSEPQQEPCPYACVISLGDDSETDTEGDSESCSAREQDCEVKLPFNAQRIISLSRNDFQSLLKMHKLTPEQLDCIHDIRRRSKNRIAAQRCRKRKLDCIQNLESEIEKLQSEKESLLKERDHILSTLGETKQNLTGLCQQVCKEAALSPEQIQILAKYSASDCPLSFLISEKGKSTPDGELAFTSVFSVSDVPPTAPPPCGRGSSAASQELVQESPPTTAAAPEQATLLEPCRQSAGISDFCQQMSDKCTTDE
The experiment in a line: pull-down.

B1: HIS-tagged NANOG (natural protein)
chain: MSVGLPGPHSLPSSEEASNSGNASSMPAVFHPENYSCLQGSATEMLCTEAASPRPSSEDLPLQGSPDSSTSPKQKLSSPEADKGPEEEENKVLARKQKMRTVFSQAQLCALKDRFQKQKYLSLQQMQELSSILNLSYKQVKTWFQNQRMKCKRWQKNQWLKTSNGLIQKGSAPVEYPSIHCSYPQGYLVNASGSLSMWGSQTWTNPTWSSQTWTNPTWNNQTWTNPTWSSQAWTAQSWNGQPWNAAPLHNFGEDFLQPYVQLQQNFSASDLEVNLEATRESHAHFSTPQALELFLNYSVTPPGEI
In the case of B1, the binding result was “binds”.
